Laboratory results published in patent publication US20100221261.

Key:
[1] = target: GST-XIAP linker BIR 2 [GST: P08515]
[2] = target: GST-linker BIR 2 BIR3Ring
Sequence of GST-linker BIR 2 BIR3Ring (chain, as listed by the source): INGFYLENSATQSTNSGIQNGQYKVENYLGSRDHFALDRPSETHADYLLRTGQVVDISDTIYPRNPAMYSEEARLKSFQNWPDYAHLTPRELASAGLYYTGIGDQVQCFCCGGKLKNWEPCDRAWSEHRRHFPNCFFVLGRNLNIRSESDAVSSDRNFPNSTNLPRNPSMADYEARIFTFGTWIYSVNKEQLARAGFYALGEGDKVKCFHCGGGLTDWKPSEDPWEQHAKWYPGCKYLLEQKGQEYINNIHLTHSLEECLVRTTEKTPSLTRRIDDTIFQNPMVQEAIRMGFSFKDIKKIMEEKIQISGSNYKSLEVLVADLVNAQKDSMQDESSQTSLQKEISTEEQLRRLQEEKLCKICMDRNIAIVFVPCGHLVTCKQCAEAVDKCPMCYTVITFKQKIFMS

B1: Caspase-3 (protein)
chain: SGISLDNSYKMDYPEMGLCIIINNKNFHKSTGMTSRSGTDVDAANLRETFRNLKYEVRNKNDLTREEIVELMRDVSKEDHSKRSSFVCVLLSHGEEGIIFGTNGPVDLKKITNFFRGDRCRSLTGKPKLFIIQACRGTELDCGIETDSGVDDDMACHKIPVEADFLYAYSTAPGYYSWRNSKDGSWFIQSLCAMLKQYADKLEFMHILTRVNRKVATEFESFSFDATFHAKKQIPCIVSMLTKELYFYH
- Caspase 3 activity (hydrolysis of DEVD-AMC, released AMC fluorescence) [1]: caspase-3 was inhibited by GST fusion proteins of XIAP linker-Bir2, XIAP Linker Bir2-Bir3-RING or full-length XIAP
- Caspase 3 activity (hydrolysis of DEVD-AMC, released AMC fluorescence) [2]: caspase-3 was inhibited by GST fusion proteins of XIAP linker-Bir2, XIAP Linker Bir2-Bir3-RING or full-length XIAP
